Measured values reported in PMC6181050.

Assays:
[1] = molecular target: PSI core complex (Chlamydomonas reinhardtii) (UniProt P12154); experiment: co-purification by sucrose density gradient ultracentrifugation with immunoblotting; PSI-LHCI complex from the ΔLHCA5 mutant (no LHCA5); thylakoids solubilised with 1% beta-DDM; SW41Ti, 288,000g, 4°C, 16 h; immunoblots normalised to PSAD
[2] = molecular target: PSI core complex (Chlamydomonas reinhardtii) (UniProt P12154); experiment: co-purification by sucrose density gradient ultracentrifugation with 14C autoradiography; PSI-LHCI supercomplex from uniformly 14C-labelled wild-type cells; NaBr-washed thylakoids solubilised with 0.8% beta-DDM; TLS-55 rotor, 259,000g, 2.5 h; polypeptides separated by three SDS-PAGE systems; signal divided by carbon number and normalised to PSAF
[3] = molecular target: PSAF (Chlamydomonas reinhardtii); experiment: as above

Chain of UniProt P12154 (P12154 whole entry, looked up, one chain of several): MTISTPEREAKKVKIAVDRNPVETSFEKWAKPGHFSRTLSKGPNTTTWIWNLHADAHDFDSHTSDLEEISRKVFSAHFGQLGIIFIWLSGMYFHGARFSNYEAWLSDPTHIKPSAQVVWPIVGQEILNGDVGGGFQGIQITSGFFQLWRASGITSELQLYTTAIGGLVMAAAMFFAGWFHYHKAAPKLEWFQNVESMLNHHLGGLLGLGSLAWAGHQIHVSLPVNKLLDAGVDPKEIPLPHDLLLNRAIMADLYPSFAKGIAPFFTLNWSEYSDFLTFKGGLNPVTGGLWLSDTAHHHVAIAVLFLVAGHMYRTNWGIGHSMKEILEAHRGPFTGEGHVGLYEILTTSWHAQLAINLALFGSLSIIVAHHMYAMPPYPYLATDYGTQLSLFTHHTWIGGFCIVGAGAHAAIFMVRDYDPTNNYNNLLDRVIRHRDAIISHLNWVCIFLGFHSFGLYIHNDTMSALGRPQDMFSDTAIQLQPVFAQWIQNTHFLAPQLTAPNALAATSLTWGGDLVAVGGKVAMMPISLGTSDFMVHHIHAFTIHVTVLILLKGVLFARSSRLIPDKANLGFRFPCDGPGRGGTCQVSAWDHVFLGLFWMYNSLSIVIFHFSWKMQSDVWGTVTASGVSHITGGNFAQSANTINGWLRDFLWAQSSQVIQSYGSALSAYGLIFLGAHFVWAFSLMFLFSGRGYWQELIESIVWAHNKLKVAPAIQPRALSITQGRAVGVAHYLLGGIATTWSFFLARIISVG

LHCA1 (natural protein)
amount in the PSI-LHCI supercomplex from the ΔLHCA5 mutant, percent of the control level [1]: 50%
stoichiometry N (copies, on a PSAF basis) [2]: 1.81

LHCA2 (natural protein)
stoichiometry N (copy, on a PSAF basis) [2]: 1

LHCA3 (natural protein)
stoichiometry N (copy, on a PSAF basis) [2]: 1

LHCA5 (natural protein)
stoichiometry N (copy, on a PSAF basis) [2]: 1

LHCA7 (natural protein)
stoichiometry N (copy, on a PSAF basis) [2]: 1

LHCA8 (natural protein)
stoichiometry N (copy, on a PSAF basis) [2]: 1

LHCA9 (natural protein)
stoichiometry N (copy, on a PSAF basis) [2]: 1

PSAD (natural protein)
stoichiometry N (relative abundance, on a PSAF basis) [3]: 1.17
